This is an account of results in article PMC4407828 (Nature communications, 2015).

This experiment has as its target GST-Tip60 (UniProt Q92993 1-513). Description: pull-down.

Sequence of GST-Tip60 (Q92993 whole entry): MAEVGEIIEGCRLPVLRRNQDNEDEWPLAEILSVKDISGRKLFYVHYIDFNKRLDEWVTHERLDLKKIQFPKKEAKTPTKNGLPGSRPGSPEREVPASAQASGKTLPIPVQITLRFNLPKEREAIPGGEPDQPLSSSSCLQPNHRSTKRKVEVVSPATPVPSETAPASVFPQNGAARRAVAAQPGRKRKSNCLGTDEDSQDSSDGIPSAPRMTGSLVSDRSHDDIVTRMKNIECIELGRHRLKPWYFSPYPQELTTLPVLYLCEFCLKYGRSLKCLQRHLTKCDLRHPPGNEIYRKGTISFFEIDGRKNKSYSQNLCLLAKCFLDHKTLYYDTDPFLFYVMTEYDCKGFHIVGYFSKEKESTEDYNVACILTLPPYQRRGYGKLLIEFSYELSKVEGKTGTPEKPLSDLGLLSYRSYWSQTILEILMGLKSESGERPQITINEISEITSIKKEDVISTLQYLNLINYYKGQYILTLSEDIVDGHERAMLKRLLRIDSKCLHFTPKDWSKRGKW

B1: His-ATF3 (natural protein, UniProt P18847 1-181, looked up)
chain: MMLQHPGQVSASEVSASAIVPCLSPPGSLVFEDFANLTPFVKEELRFAIQNKHLCHRMSSALESVTVSDRPLGVSITKAEVAPEEDERKKRRRERNKIAAAKCRNKKKEKTECLQKESEKLESVNAELKAQIEELKNEKQHLIYMLNLHRPTCIVRAQNGRTPEDERNLFIQQIKEGTLQS
Regarding B1, the binding result is listed as “binds”.
